Measurements as given in article doi:10.1101/2023.11.02.565309 (bioRxiv, 2023).

Biological target: the molecule itself
Experiment: crystal structure

B1: ligand-binding domain of GluK2 (GluK2-LBD), S1-GT-S2 construct (domain or fragment, Rattus norvegicus)
chain: NRSLIVTTILEEPYVLFKKSDKPLYGNDRFEGYCIDLLRELSTILGFTYEIRLVEDGKYGAQDDVNGQWNGMVRELIDHKADLAVAPLAITYVREKVIDFSKPFMTLGISILYRKGTPIDSADDLAKQTKIEYGAVEDGATMTFFKKSKISTYDKMWAFMSSRRQSVLVKSNEEGIQRVLTSDYAFLMESTTIEFVTQRNCNLTQIGGLIDSKGYGVGTPMGSPYRDKITIAILQLQEEGKLHMMKEKWWRGNGCP
stoichiometry N: 2
